The series deals with CCCC(=O)Oc1ccc([N+](=O)[O-])cc1. The series can be described thus: purified protein. Particulars: 37 °C, semi-purified His-tagged enzyme, methods state optimal assay conditions (pH 7).

The term Km denotes the substrate concentration at which the rate is half of its maximum. LipJ (Bacillus sp. (in: firmicutes)): the Km was 1700 µM.

For the origin of these results see paper PMC5526573, “Bacillus sp. JR3 esterase LipJ: A new mesophilic enzyme showing traces of a thermophilic past” (PLoS ONE, 2017).
